{"source": "patent US6500430B1", "about": "“Product and process to regulate actin polymerization in T lymphocytes” (National Jewish Medical and Research Center, priority 1995, dated 2002)", "molecules": {"B1": {"name": "CD25/ζY153F: CD25/ζ with the tyrosine at residue 153 substituted for a phenylalanine (SEQ ID NO:31) (protein)", "chain": "RAKFSRSAETAANLQDPNQLYNELNLGRREEYDVLEKKRARDPEMGGKQQRRRNPQEGVYNALQKDKMAEAYSEIGTKGERRRGKGHDGLYQGLSTATKDTFDALHMQTLAPR"}, "B2": {"name": "CD25/ζ: chimera of extracellular and transmembrane regions of CD25 and the cytoplasmic domain of TCR-ζ (protein)", "chain": "ELCDDDPPEIPHATFKAMAYKEGTMLNCECKRGFRRIKSGSLYMLCTGNSSHSSWDNQCQCTSSATRNTTKQVTPQPEEQKERKTTEMQSPMQPVDQASLPGHCREPPPWENEATERIYHFVVGQMVYYQCVQGYRALHRGPAESVCKMTHGKTRWTQPQLICTGEMETSQFPGEEKPQASPEGRPESETSCLVTTTDFQIQTEMAATMETSIFTTEYQVAVAGCVFLLISVLLLSGLRAKFSRSAETAANLQDPNQLYNELNLGRREEYDVLEKKRARDPEMGGKQQRRRNPQEGVYNALQKDKMAEAYSEIGTKGERRRGKGHDGLYQGLSTATKDTYDALHMQTLAPR"}, "B3": {"name": "CD8/ζY153E: substituted CD8/ζ chimera (SEQ ID NO:30) (protein)", "chain": "B1 chain with F102E"}}, "key": {"IL-2 production": {"system": "IL-2 production", "assay": "IL-2 production by T cells expressing chimeric molecules after antibody cross-linking", "type": "cell-based", "conditions": "for IL-2 production, fold less than the wild-type CD8/ζ: maximal stimulation with anti-CD8-α antibody, 24 hours, FIG. 4", "protocol": "Microcultures of 0.25 ml were prepared containing 10^5 responding T cells expressing CD8/ζ, CD8/ζD67-126, CD8/ζY153E, CD25/ζ or CD25/ζY153E. For stimulation, microtiter wells were precoated with 50 μl of a phosphate-buffered saline solution containing varying concentrations of purified anti-CD8-α antibody (19/178) or anti-hCD25 antibody (B1.49.9) to cross-link the CD8/ζ, CD8/ζD67-126 and CD8/ζY153E, or CD25/ζ and CD25/ζY153E, respectively, on the surface of the T cells. Control wells were coated with an irrelevant antibody. After 2 hours at room temperature and 1 hr at 4° C., the wells were washed three times with fetal calf serum-containing tissue culture medium. […]. After 24 hours in culture, the supernatants were harvested and assayed for IL-2 content using methods generally described in Gillis et al. (J. Immunol. 120:2027-2032, 1978). A concentration of 1 U/ml of IL-2 was the minimum detectable in this assay."}, "TCR-ζ": {"system": "TCR-ζ", "assay": "Cell-free association of TCR-ζ with the actin cytoskeleton (detergent soluble lysate, newly polymerized pellet)", "type": "biochemical, murine", "protocol": "Freshly isolated murine thymocytes or lymph node T cells, or CD25/ζ-expressing T cell hybridomas, were washed 3 times in BSS and incubated in the presence or absence of cytochalasin D for 1.5 hrs at 4° C., solubilized with 0.5% NP-40 in a Tris buffered saline solution (TBS; 150 mM NaCl, 10 mM Tris, pH 7.3) containing protease and phosphatase inhibitors (0.2 mM VO3, 10 mM NaF, 1 mM PMSF, and 1 mg/ml each of Aprotinin, Leupeptin, and α-l-antitrypsin) and centrifuged at 10,000 rpm for 10 min to pellet the insoluble material. […] To increase actin polymerization, the Mg^2+ concentration was increased to 2 mM. […] Immunoprecipitation of the detergent soluble fraction with anti-TCR-ζ antibody was then performed as described in Example 4. The pellet and the anti-TCR-ζ immunoprecipitate were resolved by SDS-PAGE gel electrophoresis and immunoblotted with anti-TCR-ζ antibody."}, "[1]": {"system": "BW 5147 α−β− thymoma transfectants", "assay": "Association of chimeric or truncated TCR-ζ molecules with the cytoskeleton upon receptor ligation (immunoblot of detergent insoluble pellet)", "type": "cell-based", "conditions": "substitution of the distal COOH-terminal tyrosine of the third ITAM"}}, "note": "Residue numbers refer to the chain shown, from its start.", "data": [{"molecule": "CD8/ζD67-126: truncated CD8/ζ chimera expressing only intact ζc domain (SEQ ID NO:29) (RAKFSRSAETAANLQGTKGERRRGKGHDGLYQGLSTATKDTYDALHMQTLAPR)", "values": [{"measurement": "IL-2 production, fold less than the wild-type CD8/ζ", "setting": "IL-2 production", "result": 40, "unit": "fold"}]}, {"molecule": "[Mg+2]", "note": "[Mg^2+, reference compound]", "values": [{"measurement": "TCR-ζ binding with actin polymerization induced in vitro", "setting": "TCR-ζ; 2 mM Mg2+ alone", "result": "without additional TCR-ζ binding"}]}, {"molecule": "B1", "values": [{"measurement": "Tyrosine phosphorylation of a set of proteins induced by receptor ligation, compared with the intact CD25/ζ chimera", "setting": "IL-2 production; receptor ligation", "result": "qualitatively and quantitatively indistinguishable"}, {"measurement": "Effect of removal of the distal tyrosine (Y153F) on cytoskeletal association", "setting": "[1]", "result": "almost completely abrogated cytoskeletal association"}]}, {"molecule": "B2", "values": [{"measurement": "Co-sedimentation with the actin cytoskeleton in vitro", "setting": "TCR-ζ; in vitro activating (MgATP) condition, depleted from the pellet under actin depolymerizing conditions", "result": "co-sediments with the actin cytoskeleton"}]}, {"molecule": "B3", "values": [{"measurement": "IL-2 production, fold less than the wild-type CD8/ζ", "setting": "IL-2 production", "result": 100, "unit": "fold"}]}]}
